# Target: native PfCSP on PfCSP-expressing Plasmodium berghei (PbPf) sporozoites (Plasmodium falciparum) (UniProt P19597)
# Assay: cell-based or functional assay
# UniProt P19597, sequence (P19597 19-374 limits assumed): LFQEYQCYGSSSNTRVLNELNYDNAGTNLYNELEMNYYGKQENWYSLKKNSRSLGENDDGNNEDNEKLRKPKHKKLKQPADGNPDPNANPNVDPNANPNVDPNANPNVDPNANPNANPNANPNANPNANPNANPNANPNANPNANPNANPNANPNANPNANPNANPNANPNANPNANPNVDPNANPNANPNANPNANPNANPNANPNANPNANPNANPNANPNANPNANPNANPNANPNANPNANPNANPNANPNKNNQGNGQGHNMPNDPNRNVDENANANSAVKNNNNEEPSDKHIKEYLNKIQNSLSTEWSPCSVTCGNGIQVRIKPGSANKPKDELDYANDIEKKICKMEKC
substance,measurement,value
anti-PfCSP 2A10 monoclonal antibody,"circumsporozoite precipitation reaction (CSPR), mean FSC-W",1220

# Reference: patent US20260151470A1
